According to the supplement of paper PMC7877785:
± gives the uncertainty stated by the source.

Assay: self-splicing fitness, log relative to wild type (ln ratio); higher = more splicing; Tetrahymena group I intron in knt gene, E. coli kanamycin selection, DiMSum; sequences stand for … in CUCUCU…GGAGGGAAAAGUUAUCAGGCAUGCACCUGGUAGCUAGUCUUUAAACCAAUAGAUUGCAUCGGUUUAAAAGGCAAGACCGUCAAAUUGCGGGAAAGGGGUCAACAGCCGUUCAGUACCAAGUCUCAGGGGAAACUUUGAGAUGGCCUUGCAAAGGGUAUGGUAAUAAGCUGACGGACAUGGUCCUAACCACGCAGCCAAGUCCUAAGUCAACAGAUCUUCUGUUGAUAUGGAUGCAGUUCACAGACUAAAUGUCGGUCGGGGAAGAUGUAUUCUUCUCAUAAGAUAUAGUCGGACCUCUCCUUAAUGGGAGCUAGCGGAUGAAGUGAUGCAACACUGGAGCCGCUGGGAACUAAUUUGUAUGCGAAAGUAUAUUGAUUAGUUUUGGAGUACUCGUGGUCG
How it was run: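 Pooled colonies went to amplicon sequencing on an Illumina HiSeq 2500 after six replicate transformations. The plates were LB agar with 100 μg/mL carbenicillin, 50 μM IPTG and 0.2% rhamnose, with or without 25 μg/mL kanamycin, incubated overnight at 37°C or 30°C. The E. coli BL21(DE3) library had all eight P1ex-region intron nucleotides randomised, the intron placed in the knt kanamycin-resistance gene on pET-22b(+). DiMSum fitness is the error-weighted combination of replicate fold changes, kanamycin against none, normalised to wild type.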

| Sequence | self-splicing fitness (ln) (30 °C) | self-splicing fitness (ln) (37 °C) |
| --- | --- | --- |
| GUAUAGCAAUAUUACGCUAU | -3.33 ± 0.33 | -1.23 ± 0.28 |
| GGUUAGCAAUAUUACGGUCC | -1.77 ± 0.49 |  |
| AGGUAGCAAUAUUACGCCUA | -0.599 ± 0.019 | -0.197 ± 0.035 |
| CGUAAGCAAUAUUACGUCUG | -0.285 ± 0.085 | 0.29 ± 0.1 |
| AUCAAGCAAUAUUACGACCU | -0.924 ± 0.11 | -0.336 ± 0.1 |
| UGGAAGCAAUAUUACGCAGG | -3.1 ± 0.42 | -1.47 ± 0.4 |
| UAUAAGCAAUAUUACGUUGG | -2.78 ± 0.13 | -2.23 ± 0.17 |
| AUACAGCAAUAUUACGUUAC | -3.94 ± 0.25 | -2.79 ± 0.27 |
| CCCAAGCAAUAUUACGUGUC | -4.25 ± 0.26 | -2.72 ± 0.18 |
| UCAAAGCAAUAUUACGAUGG | -1.91 ± 0.1 | 0.127 ± 0.11 |
| UAUCAGCAAUAUUACGCUCG | -0.0189 ± 0.079 | 0.35 ± 0.12 |
| CAAGAGCAAUAUUACGGUUC | -3.57 ± 0.24 | -2.34 ± 0.25 |
| ACAAAGCAAUAUUACGAAGC | -3.71 ± 0.22 | -0.444 ± 0.15 |
| AGCAAGCAAUAUUACGAAGA | -3.3 ± 0.31 | -1.74 ± 0.15 |
| ACUCAGCAAUAUUACGGGUG | -1.42 ± 0.063 | -0.563 ± 0.077 |
| AAGGAGCAAUAUUACGCGAG | -2.86 ± 0.19 | -2.23 ± 0.19 |
| AAACAGCAAUAUUACGAUCA | -0.774 ± 0.07 | -0.178 ± 0.065 |
| AAUUAGCAAUAUUACGAGGU | -3.26 ± 0.2 | -3.02 ± 0.24 |
| CUCCAGCAAUAUUACGUAAU | -4.88 ± 0.23 | -3.21 ± 0.2 |
| CCGGAGCAAUAUUACGACGU | -0.341 ± 0.08 | -0.163 ± 0.096 |
| UGCCAGCAAUAUUACGAGAU | -3.75 ± 0.26 | -2.32 ± 0.21 |
| CUCGAGCAAUAUUACGCGGA | -3.05 ± 0.24 | -2.63 ± 0.22 |
| UUCCAGCAAUAUUACGCUAG | -2.89 ± 0.17 | -1.96 ± 0.2 |
| AGGCAGCAAUAUUACGGGUG | -3.64 ± 0.15 | -2.29 ± 0.12 |
| ACUCAGCAAUAUUACGGGUC | -2.95 ± 0.16 | -2.2 ± 0.17 |

| Sequence | self-splicing fitness (ln) (30 °C) | self-splicing fitness (ln) (37 °C) |
| --- | --- | --- |
| GUUAAGCAAUAUUACGCGUU | -0.757 ± 0.08 | -1.07 ± 0.12 |
| CUUGAGCAAUAUUACGACUC |  | -1.67 ± 0.42 |
| AAACAGCAAUAUUACGUCGU | -2.13 ± 0.071 | -0.661 ± 0.071 |
| GAGGAGCAAUAUUACGUCGC |  | -1.54 ± 0.33 |
| ACCAAGCAAUAUUACGUCGC | -3.25 ± 0.19 | -1.27 ± 0.14 |
| GAUAAGCAAUAUUACGUUGG | -3.89 ± 0.21 | -2.87 ± 0.25 |
| AGAGAGCAAUAUUACGCCGA |  | -1.55 ± 0.43 |
| CAGCAGCAAUAUUACGGACA | -2.86 ± 0.17 | -2.28 ± 0.17 |
| ACGGAGCAAUAUUACGGCUA | -1.96 ± 0.21 | -0.548 ± 0.14 |
| AAUUAGCAAUAUUACGACAC | -0.631 ± 0.11 | -0.0896 ± 0.14 |
| UGAUAGCAAUAUUACGUGAG | -0.705 ± 0.05 | -0.543 ± 0.087 |
| AACGAGCAAUAUUACGAUCG | -1.19 ± 0.14 | -1.06 ± 0.16 |
| UGGAAGCAAUAUUACGUUUA | -0.859 ± 0.072 | -0.47 ± 0.086 |
| AGGAAGCAAUAUUACGGUAC | -3.99 ± 0.36 | -3.03 ± 0.25 |
| CCUUAGCAAUAUUACGGCAC | -3.69 ± 0.29 | -2.71 ± 0.44 |
| AAACAGCAAUAUUACGAUUC | -2.04 ± 0.1 | 0.0665 ± 0.091 |
| UGUAAGCAAUAUUACGAAAG | -3.6 ± 0.25 | -2.75 ± 0.34 |
| GAGUAGCAAUAUUACGGGUC | -2.57 ± 0.2 | -1.81 ± 0.18 |
| GCGAAGCAAUAUUACGAUCA | -1.82 ± 0.34 | -1.01 ± 0.3 |
| AUAUAGCAAUAUUACGAGGC | -2.74 ± 0.26 |  |
| AGGUAGCAAUAUUACGCCGU | -1.24 ± 0.019 | -0.852 ± 0.035 |
| AUGUAGCAAUAUUACGGUCA | -0.793 ± 0.14 | -0.745 ± 0.13 |
| ACUCAGCAAUAUUACGGAAU | -1.75 ± 0.084 | -0.549 ± 0.11 |
| AAACAGCAAUAUUACGAGUC | -3.55 ± 0.14 | -2.38 ± 0.14 |
| UGUCAGCAAUAUUACGCGAA | -0.455 ± 0.069 | 0.0551 ± 0.085 |

| Sequence | self-splicing fitness (ln) (30 °C) | self-splicing fitness (ln) (37 °C) |
| --- | --- | --- |
| CCUCAGCAAUAUUACGCCCG | -0.527 ± 0.15 | -0.422 ± 0.18 |
| GUUUAGCAAUAUUACGGGGG | -3.68 ± 0.37 | -1.82 ± 0.26 |
| AUGUAGCAAUAUUACGUCGG | -3.01 ± 0.35 | -2.18 ± 0.28 |
| UUUUAGCAAUAUUACGGUUU | -3.26 ± 0.47 | -0.0249 ± 0.25 |
| AUAGAGCAAUAUUACGCCGA | -1.81 ± 0.19 | -0.0699 ± 0.32 |
| AAAUAGCAAUAUUACGAUAA | -1.51 ± 0.12 | -0.658 ± 0.13 |
| AGCAAGCAAUAUUACGCGCC | -3.19 ± 0.34 | -2.46 ± 0.32 |
| UUAAAGCAAUAUUACGCGCU | -0.179 ± 0.1 | -0.107 ± 0.11 |
| CUGUAGCAAUAUUACGAGCA |  | -2.01 ± 0.31 |
| GAUGAGCAAUAUUACGUGGU | -3.36 ± 0.37 |  |
| UGUAAGCAAUAUUACGCUAG | -1.82 ± 0.1 | -0.0644 ± 0.099 |
| CUCCAGCAAUAUUACGGAUC | -1.86 ± 0.099 | -1.47 ± 0.14 |
| AUAAAGCAAUAUUACGAAUC | -4.22 ± 0.42 | -1.31 ± 0.22 |
| CCCCAGCAAUAUUACGGAUC | -2.89 ± 0.12 | -2.96 ± 0.21 |
| CGCCAGCAAUAUUACGGGGC | -4 ± 0.19 | -2.55 ± 0.16 |
| CAUAAGCAAUAUUACGUAAC | -3.03 ± 0.23 | -2.1 ± 0.26 |
| GUUAAGCAAUAUUACGUAAG | -0.147 ± 0.098 | -0.0396 ± 0.13 |
| CCUUAGCAAUAUUACGUGUG | -1.61 ± 0.063 | -0.595 ± 0.078 |
| GGAGAGCAAUAUUACGUACU | -1.1 ± 0.12 | -1.16 ± 0.14 |
| CGAUAGCAAUAUUACGGUGA | -2.74 ± 0.2 | -1.94 ± 0.19 |
| AUCGAGCAAUAUUACGCCUU | -1.74 ± 0.16 | -1.72 ± 0.21 |
| UCGAAGCAAUAUUACGUCGU | -2.65 ± 0.2 | -1.34 ± 0.15 |
| GCUGAGCAAUAUUACGAGUG | -0.948 ± 0.14 | -1.2 ± 0.17 |
| UAGUAGCAAUAUUACGGUCU | -1.79 ± 0.17 | -0.706 ± 0.13 |
| CCAUAGCAAUAUUACGCAAG | -2.84 ± 0.17 | -0.562 ± 0.13 |

| Sequence | self-splicing fitness (ln) (30 °C) | self-splicing fitness (ln) (37 °C) |
| --- | --- | --- |
| CGAGAGCAAUAUUACGUUCA | -2.34 ± 0.21 | -2.69 ± 0.31 |
| GAACAGCAAUAUUACGUGGU | -3.12 ± 0.11 | -1.89 ± 0.09 |
| UCAGAGCAAUAUUACGAUUG | -4 ± 0.37 | -2.41 ± 0.24 |
| UGUGAGCAAUAUUACGUGAA |  | -1.69 ± 0.23 |
| GGACAGCAAUAUUACGAAGG | -3.1 ± 0.24 | -2.38 ± 0.39 |
| UGAUAGCAAUAUUACGUUCA | -0.43 ± 0.087 | 0.075 ± 0.093 |
| UGUAAGCAAUAUUACGUGUA | -1.52 ± 0.077 | -0.97 ± 0.093 |
| UCAGAGCAAUAUUACGAGGC | -1.74 ± 0.43 |  |
| UGGGAGCAAUAUUACGUUGA | -3.73 ± 0.37 | -2.06 ± 0.27 |
| UAUCAGCAAUAUUACGCGGA | -0.964 ± 0.081 | -0.0724 ± 0.076 |
| CUAUAGCAAUAUUACGGCAU | -3.11 ± 0.25 | -2.37 ± 0.24 |
| CCGUAGCAAUAUUACGGAAC | -3.54 ± 0.41 | -2.13 ± 0.43 |
| CUCGAGCAAUAUUACGGAGU | -3.07 ± 0.22 | -2.57 ± 0.31 |
| UGGUAGCAAUAUUACGGCAA | -1.14 ± 0.086 | 0.277 ± 0.1 |
| AUCCAGCAAUAUUACGUCAA | -1.99 ± 0.1 | -1.54 ± 0.098 |
| GGAAAGCAAUAUUACGUCGC | -0.897 ± 0.17 | -0.926 ± 0.2 |
| UCCUAGCAAUAUUACGGUUG | -4.08 ± 0.22 | -1.81 ± 0.14 |
| GGGGAGCAAUAUUACGUAAC | -2.06 ± 0.46 | -0.204 ± 0.39 |
| CCGCAGCAAUAUUACGAUAU | -4.2 ± 0.23 | -2.76 ± 0.17 |
| CCUCAGCAAUAUUACGUCUG | -3.75 ± 0.23 | -1.79 ± 0.19 |
| GUUAAGCAAUAUUACGCCCA | 0.115 ± 0.22 | -0.355 ± 0.29 |
| CUCAAGCAAUAUUACGUUAU | -3.81 ± 0.15 | -3.39 ± 0.2 |
| CUCGAGCAAUAUUACGAACA | -1.56 ± 0.41 | -2.03 ± 0.49 |
